# Values of other authors as cited in patent US20240024427A1, “METHOD OF REDUCING INTRAOCULAR PRESSURE” (INVEX THERAPEUTICS LTD, priority 2020, published 2024).
# Like-named read-outs stand apart in the source and are kept apart here.
# Tests used:
# [1] = conscious rat model, dosed subcutaneously, immediate release formulation
Substance,Mean plasma terminal half-life (per SmPC),other results
Albiglutide,Approximately 5 days,
Dulaglutide,4.5 to 4.7 days,
Lixisenatide,,Mean plasma terminal half-life (per SmPC or FDA product label): Approximately 3 hours
Semaglutide,Approximately 1 week,
exendin-4,,effect on intracranial pressure (ICP) compared to a saline control [1]: reduced ICP
